Laboratory results reported in patent publication US7183377 (US Dept. of Health and Human Services, dated 2007).

Biological target: T1, Wingless (Wg), the Drosophila homolog of Wnt-1 (Drosophila, UniProt P09615 18-468)
T1 construct: mature; Used as unpurified conditioned medium in the ELISAs
T1 sequence (looked up): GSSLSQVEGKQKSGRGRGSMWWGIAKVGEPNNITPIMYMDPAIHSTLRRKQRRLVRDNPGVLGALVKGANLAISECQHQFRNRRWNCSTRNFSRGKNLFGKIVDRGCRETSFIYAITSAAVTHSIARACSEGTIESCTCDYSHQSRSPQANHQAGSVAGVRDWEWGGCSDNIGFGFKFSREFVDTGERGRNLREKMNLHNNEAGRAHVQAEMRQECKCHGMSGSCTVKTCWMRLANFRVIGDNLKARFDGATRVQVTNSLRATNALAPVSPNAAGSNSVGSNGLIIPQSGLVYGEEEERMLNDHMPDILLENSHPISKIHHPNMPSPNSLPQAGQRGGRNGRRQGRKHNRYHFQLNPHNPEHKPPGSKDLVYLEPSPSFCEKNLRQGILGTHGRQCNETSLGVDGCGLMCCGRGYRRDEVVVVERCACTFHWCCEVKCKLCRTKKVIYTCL
Assay: ELISA: FRP coated at 100 ng/well, Wg-containing S2 conditioned medium, detection with anti-Wg antibody
From the text: As an alternative, cell-free systems to study the binding of FRP and Wnts were developed. These systems have the advantage of simplicity, as the profile of endogenous Frizzled/FRP/Wnt expression would not be an issue. Moreover, experiments now can be performed with purified recombinant FRP. One model system disclosed in detail below makes use of an ELISA type of format. Microtiter wells are first coated with purified FRP, and then blocked with a large excess of bovine serum albumin (BSA). To minimize the problems associated with solubilizing Wnts, initial studies focused on studying FRP binding to Wingless (Wg) because an expression system is available that releases Wg into conditioned medium. Van Leeuwen, et al., Nature 368:342–344 (1994). Although expression of a heat shock-Wg construct in transfected S2 insect cells results in only a small fraction of recombinant Wg in the media, it is sufficient for binding studies and obviates the need for detergents or other agents to extract the protein from cell surfaces or extracellular matrix. […] After washing, the wells are sequentially incubated with antibody to Wg, secondary antiserum (against the Wg antibody) conjugated to alkaline phosphatase, and p-nitrophenol phosphate. […]
FIG. 13 illustrates the binding of FRP and Wg. […] Color development, monitored at 405 nm, was indicative of Wg binding in the well.

B1: human Frizzled-related protein (FRP) (receptor)
chain: VGSASEYDYVSFQSDIGPYQSGRFYTKPPQCVDIPADLRLCHNVGYKKMVLPNLLEHETMAEVKQQASSWVPLLNKNCHAGTQVFLCSLFAPVCLDRPIYPCRWLCEAVRDSCEPVMQFFGFYWPEMLKCDKFPEGDVCIAMTPPNATEASKPQGTTVCPPCDNELKSEAIIEHLCASEFALRMKIKEVKKENGDKKIVPKKKKPLKLGPIKKKDLKKLVLYLKNGADCPCHQLDNLSHHFLIMGRKVKSQYLLTAIHKWDKKNKEFKNFMKKMKNHECPTFQSVFK
notes: The natural protein purified from M426 medium began 11 residues further downstream (residue 38), with a second N-terminus three residues later; The N-terminus of the recombinant protein is not reported; In the ELISAs it was untagged full-length FRP purified from the medium of MDCK cells transfected with pcDNA3.1(+); also called hFRP; recombinant FRP
B1: binds.
